Source: patent US12129490B2, “Methods for generating hepatocytes and cholangiocytes from pluripotent stem cells” (UNIVERSITY HEALTH NETWORK, priority 2018, dated 2024)

B1: TGFβ3: TGFbeta family member (protein, UniProt P10600 301-412, looked up)
Transforming growth factor …: ALDTNYCFRNLEENCCVRPLYIDFRQDLGWKWVHEPKGYYANFCSGPCPYLRSADTTHSTVLGLYNTLNPEASASPCCVPQDLEPLTILYYVGRTPKVEQLSNMVVKSCKCS
modifications: Transforming growth factor beta-3
notes: TGFbeta family member
B2: Wnt3A: wingless-type MMTV integration site family, member 3A factor, added to activin-induced EB cultures (protein, UniProt P56704 19-352, looked up)
Protein Wnt-3a: SYPIWWSLAVGPQYSSLGSQPILCASIPGLVPKQLRFCRNYVEIMPSVAEGIKIGIQECQHQFRGRRWNCTTVHDSLAIFGPVLDKATRESAFVHAIASAGVAFAVTRSCAEGTAAICGCSSRHQGSPGKGWKWGGCSEDIEFGGMVSREFADARENRPDARSAMNRHNNEAGRQAIASHMHLKCKCHGLSGSCEVKTCWWSQPDFRAIGDFLKDKYDSASEMVVEKHRESRGWVETLRPRYTYFKVPTERDLVYYEASPNFCEPNPETGSFGTRDRTCNVSSHGIDGCDLLCCGRGHNARAERRREKCRCVFHWCCYVSCQECTRVYDVHTCK
B3: EGF: Epidermal Growth factor (protein, UniProt P01133 23-1207, looked up)
Pro-epidermal growth factor: PQHWSCPEGTLAGNGNSTCVGPAPFLIFSHGNSIFRIDTEGTNYEQLVVDAGVSVIMDFHYNEKRIYWVDLERQLLQRVFLNGSRQERVCNIEKNVSGMAINWINEEVIWSNQQEGIITVTDMKGNNSHILLSALKYPANVAVDPVERFIFWSSEVAGSLYRADLDGVGVKALLETSEKITAVSLDVLDKRLFWIQYNREGSNSLICSCDYDGGSVHISKHPTQHNLFAMSLFGDRIFYSTWKMKTIWIANKHTGKDMVRINLHSSFVPLGELKVVHPLAQPKAEDDTWEPEQKLCKLRKGNCSSTVCGQDLQSHLCMCAEGYALSRDRKYCEDVNECAFWNHGCTLGCKNTPGSYYCTCPVGFVLLPDGKRCHQLVSCPRNVSECSHDCVLTSEGPLCFCPEGSVLERDGKTCSGCSSPDNGGCSQLCVPLSPVSWECDCFPGYDLQLDEKSCAASGPQPFLLFANSQDIRHMHFDGTDYGTLLSQQMGMVYALDHDPVENKIYFAHTALKWIERANMDGSQRERLIEEGVDVPEGLAVDWIGRRFYWTDRGKSLIGRSDLNGKRSKIITKENISQPRGIAVHPMAKRLFWTDTGINPRIESSSLQGLGRLVIASSDLIWPSGITIDFLTDKLYWCDAKQSVIEMANLDGSKRRRLTQNDVGHPFAVAVFEDYVWFSDWAMPSVMRVNKRTGKDRVRLQGSMLKPSSLVVVHPLAKPGADPCLYQNGGCEHICKKRLGTAWCSCREGFMKASDGKTCLALDGHQLLAGGEVDLKNQVTPLDILSKTRVSEDNITESQHMLVAEIMVSDQDDCAPVGCSMYARCISEGEDATCQCLKGFAGDGKLCSDIDECEMGVPVCPPASSKCINTEGGYVCRCSEGYQGDGIHCLDIDECQLGEHSCGENASCTNTEGGYTCMCAGRLSEPGLICPDSTPPPHLREDDHHYSVRNSDSECPLSHDGYCLHDGVCMYIEALDKYACNCVVGYIGERCQYRDLKWWELRHAGHGQQQKVIVVAVCVVVLVMLLLLSLWGAHYYRTQKLLSKNPKNPYEESSRDVRSRRPADTEDGMSSCPQPWFVVIKEHQDLKNGGQPVAGEDGQAADGSMQPTSWRQEPQLCGMGTEQGCWIPVSSDKGSCPQVMERSFHMPSYGTQTLEGGVEKPHSLLSANPLWQQRALDPPHQMELTQ
modifications: Pro-epidermal growth factor
B4: TGFβ2: TGFbeta family member (protein, UniProt P61812 303-414, looked up)
Transforming growth factor …: ALDAAYCFRNVQDNCCLRPLYIDFKRDLGWKWIHEPKGYNANFCAGACPYLWSSDTQHSRVLSLYNTINPEASASPCCVSQDLEPLTILYYIGKTPKIEQLSNMIVKSCKCS
modifications: Transforming growth factor beta-2
notes: TGFbeta family member

Legend:
[1] = system: hPSC-derived hepatoblast aggregates; test: Growth factor addition to hepatoblast aggregates co-cultured on OP9 stroma; assay type: cell-based, human; conditions: for cholangiocyte branching: hepatoblasts co-cultured with OP9
Excerpt: To investigate the effect of Notch signaling on cholangiocyte development, we co-cultured the hepatoblast population (day 25) with OP9 stromal cells that are known to express different Notch ligands including Jagged-1^4,5. […] To overcome this problem, we generated 3D aggregates from the day 25 monolayer cells and cultured them on the OP9 stromal cells.

[2] = system: hESC-derived embryoid bodies; test: Endoderm induction in hESC-derived embryoid bodies, flow cytometry; assay type: cell-based, human; conditions: day six EBs
Procedure: Similar to protocols using monolayer cultures^16, it involves specific steps that recapitulate the critical stages of liver development in the early embryo. EBs are formed from small aggregates by culture for 24 hours in low levels of BMP4, as previously described^18. The EBs are subsequently exposed to high concentrations of activin A (hereafter referred to as activin) for five days to induce definitive endoderm, a population defined by expression of the surface markers CXCR4, CKIT and EPCAM and the transcription factors SOX17 and FOXA2.
Addition of Wnt3A to the activin-induced EB cultures led to reproducible increases in the proportion of CXCR4^+, SOX17^+ and FOXA2^+ cells within the EBs (FIG. 1c). With the increase in CXCR4 expression, the proportion of CKIT^+CXCR4^+ and CXCR4^+EPCAM^+ cells increased to greater than 95% of the population. […] Endoderm induction in the EBs was influenced by the base culture media used. StemPro34 supported more efficient endoderm induction than neural basal media that we used previously (FIG. 1f). The induction of highly enriched endoderm is an important first step in the efficient and reproducible generation of hepatocyte-like cells from hPSCs.
Media was changed every 3 days.
Flow cytometric analyses were performed as described previously^45. […] Stained cells were analyzed using an LSRII flow cytometer (BD).

Molecule | cholangiocyte branching [1] | further results
B1 | promote branching structures | –
B2 | – | proportion co-expressing CXCR4 and CKIT or CXCR4 and EPCAM [2]: greater than 95%
B3 | – | development of CK19+ clusters ([1]; OP9 co-culture): increase in the size
B4 | promote branching structures | –
